The experiment deals with recombinant human PDGF-B (human) (UniProt P01127). Nature of the experiment: SPR (Biacore T200), antibody captured by anti-human Fc, antigen as analyte, 25 degrees C, pH 7.4, 1:1 model. (In general: Surface plasmon resonance follows binding to a sensor surface in real time, without labels.)
Chain of UniProt P01127 (P01127 82-190 limits assumed): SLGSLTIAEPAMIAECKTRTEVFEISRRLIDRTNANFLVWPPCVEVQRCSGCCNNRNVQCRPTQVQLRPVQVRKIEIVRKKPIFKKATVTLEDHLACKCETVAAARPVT

B1: CPR001-GL-F1332m (antibody, V domains shown)
VH: EVQLLESGGGLVQPGGSLRLSCAASGFTFSSYAMSWVRQAPGKGLEWVSYISDDGSLKYYADSVKGRFTISRDNSKNTLYLQMNSLRAEDTAVYYCAKHPYWYGGQLDLWGQGTLVTVSS
VL: SYELTQPPSVSVSPGQTASITCSGDSLGSYFVHWYQQKPGQSPVLVIYDDSNRPSGIPERFSGSNSGNTATLTISGTQAMDEADYYCSAFTHNSDVFGGGTKLTVL
What is called Kd is the equilibrium constant for the complex coming apart. For B1, the Kd came to 0.0202 nM.

B2: CPR001GLVH/xIC17-SG181v14hk (bispecific antibody, part only; not given: IC17 control arm and constant region, V domains shown, part only)
VH: B1 VH
VL: B1 VL
On to B2, for which the Kd amounted to 0.0165 nM.

The values above are taken from patent US20220242944A1.
